From article doi:10.1101/2025.01.10.632437 (bioRxiv, 2025)
Where two headings read alike, the source gives them in different places.

Assays:
Test in all cases: cryo-EM structure
cryo-EM structure [1] = target: the molecule itself
cryo-EM structure [2] = target: the molecule itself; remark: listed apart in the source
cryo-EM structure [3] = target: the molecule itself; remark: listed apart in the source

B1: bovine proton-activated Cl- channel TMEM206/PACC1 without vYFP (conventional purification) (natural protein)
chain: not shown
binding result (cryo-EM structure [1]): binds

B2: bovine TMEM206/PACC1 with C-terminally fused venus-YFP followed by a streptavidin binding peptide tag (natural protein)
chain: not shown
binding result (cryo-EM structure [2]): binds

B3: murine TMEM16F with C-terminal vYFP and SBP-tag (natural protein, mouse)
chain: QMMTRKVLLNMELEEDDDEDGDIVLENFDQTIVCPTFGSLENQQDFRTPEFEEFNGKPDSLFFTDGQRRIDFILVYEDESKKENNKKGTNEKQKRKRQAYESNLICHGLQLEATRSVSDDKLVFVKVHAPWEVLCTYAEIMHIKLPLKPNDLKTRSPFGNLNWFTKVLRVNESVIKPEQEFFTAPFEKSRMNDFYILDRDSFFNPATRSRIVYFILSRVKYQVMNNVNKFGINRLVSSGIYKAAFPLHDCRFNYESEDISCPSERYLLYREWAHPRSIYKKQPLDLIRKYYGEKIGIYFAWLGYYTQMLLLAAVVGVACFLYGYLDQDNCTWSKEVCDPDIGGQILMCPQCDRLCPFWRLNITCESSKKLCIFDSFGTLIFAVFMGVWVTLFLEFWKRRQAELEYEWDTVELQQEEQARPEYEAQCNHVVINEITQEEERIPFTTCGKCIRVTLCASAVFFWILLIIASVIGIIVYRLSVFIVFSTTLPKNPNGTDPIQKYLTPQMATSITASIISFIIIMILNTIYEKVAIMITNFELPRTQTDYENSLTMKMFLFQFVNYYSSCFYIAFFKGKFVGYPGDPVYLLGKYRSEECDPGGCLLELTTQLTIIMGGKAIWNNIQEVLLPWVMNLIGRYKRVSGSEKITPRWEQDYHLQPMGKLGLFYEYLEMIIQFGFVTLFVASFPLAPLLALVNNILEIRVDAWKLTTQFRRMVPEKAQDIGAWQPIMQGIAILAVVTNAMIIAFTSDMIPRLVYYWSFSIPPYGDHTYYTMDGYINNTLSVFNITDFKNTDKENPYIGLGNYTLCRYRDFRNPPGHPQEYKHNIYYWHVIAAKLAFIIVMEHIIYSVKFFISYAIPDVSKITKSKIKREKYLTQKLLHESHLKDLTKNMGIIAERIGGTVDNSVRPKLE
stoichiometry N (cryo-EM structure [3]): 2
